Publication PMC8385704 (Signal Transduction and Targeted Therapy, 2021)

Experiments:
[1] = molecular target: T1, His-tagged recombinant human ACE2 protein (residues 19-740), dimeric (Homo sapiens, UniProt Q9BYF1); assay: BLI; details: both partners purified
T1 construct: also called hACE2-his; His-tagged human ACE2

[2] = molecular target: T1, His-tagged recombinant human ACE2 …; assay: ELISA; 3E8 and His-tagged recombinant human ACE2 protein; who was coated is not told; details: both partners purified

T1 sequence (Q9BYF1 19-740): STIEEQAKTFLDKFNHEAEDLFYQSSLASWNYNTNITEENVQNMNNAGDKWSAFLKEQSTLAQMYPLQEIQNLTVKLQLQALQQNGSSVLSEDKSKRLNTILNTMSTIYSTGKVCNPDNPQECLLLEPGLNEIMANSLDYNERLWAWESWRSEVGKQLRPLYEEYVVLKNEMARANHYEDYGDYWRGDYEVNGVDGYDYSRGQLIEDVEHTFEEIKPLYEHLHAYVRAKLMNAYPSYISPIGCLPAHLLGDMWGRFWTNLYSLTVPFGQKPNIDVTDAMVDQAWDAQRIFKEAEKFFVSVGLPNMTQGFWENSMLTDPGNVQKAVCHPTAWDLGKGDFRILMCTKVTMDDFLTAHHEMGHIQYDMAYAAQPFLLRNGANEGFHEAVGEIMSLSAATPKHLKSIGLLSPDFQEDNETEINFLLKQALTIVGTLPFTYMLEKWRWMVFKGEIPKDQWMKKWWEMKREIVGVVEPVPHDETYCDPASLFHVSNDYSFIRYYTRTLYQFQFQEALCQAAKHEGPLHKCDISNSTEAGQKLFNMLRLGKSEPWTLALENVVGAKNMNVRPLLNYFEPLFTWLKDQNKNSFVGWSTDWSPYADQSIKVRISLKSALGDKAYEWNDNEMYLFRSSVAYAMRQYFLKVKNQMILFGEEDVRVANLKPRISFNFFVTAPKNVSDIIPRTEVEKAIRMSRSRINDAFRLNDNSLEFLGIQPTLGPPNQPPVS

B1: monoclonal antibody 3E8 (antibody, V domains shown)
VH: EVQLEESGAELVRPGASVKISCKAFGYTFTNHHINWMKQRPGQGLDWIGYVNPYNDYTKYSQNFKGKATLSVDRSSSTAYMELSSLTSEDSAVYYCARWRDYDRDWYFDVWGAGTTVIVSS
VL: DIVMTQSPATLSVTPGDRVSLSCRASQSIRDYLYWYQQKSHESPRLLIKYASQSISGIPSRFSGSGSGSDFTLSINSVEPEDVGVYYCQNGHSFPYTFGGGTKLEIK
Kd [1]: 0.0305 µM | EC50 [2]: 0.0153 µM
